Source: paper PMC6353796, “Thermostable Branched-Chain Amino Acid Transaminases From the Archaea Geoglobus acetivorans and Archaeoglobus fulgidus: Biochemical and Structural Characterization” (Frontiers in Bioengineering and Biotechnology, 2019)

Tests used:
purified protein [1] = substrate: CC(C)CC(=O)C(=O)O; assay: purified protein; conditions: 10 mM L-glutamate, 0.1 M Tris-HCl pH 8, 0.1 mM PLP, 70°C
purified protein [2] = substrate: CC[C@H](C)C(=O)C(=O)O; assay: purified protein; conditions: 10 mM L-glutamate, 0.1 M Tris-HCl pH 8, 0.1 mM PLP, 70°C
purified protein [3] = substrate: CC(C)C(=O)C(=O)O; assay: purified protein; conditions: 10 mM L-glutamate, 0.1 M Tris-HCl pH 8, 0.1 mM PLP, 70°C
[4] = substrate: O=C(O)CCC(=O)C(=O)O; assay: steady-state kinetics, GluDH-coupled discontinuous assay; format: biochemical, Geoglobus acetivorans; conditions: 5 mM L-Leu co-substrate, 50 mM phosphate pH 8.0, 100 mM NaCl, 60 μM PLP, 65°C
Text: steady-state kinetics, GluDH-coupled discontinuous assay on GEO1900 | For GEO1900 the extrapolated Vmax and Km values for pyruvate and AKG were […]

[5] = substrate: CC(=O)C(=O)O; assay: steady-state kinetics of overall transamination, Michaelis-Menten fit; format: biochemical, Geoglobus acetivorans; conditions: 5 mM L-Leu co-substrate; extrapolated
Text: steady-state kinetics of overall transamination, Michaelis-Menten fit on GEO1900 | For GEO1900 the extrapolated Vmax and Km values for pyruvate and AKG were […]

| Protein | Km (purified protein [1]) [µM] | Vmax (purified protein [1]) [µmol/min/mg] | kcat/Km (purified protein [1]) [M⁻¹ s⁻¹] | Km (purified protein [2]) [µM] | Vmax (purified protein [2]) [µmol/min/mg] | kcat/Km (purified protein [2]) [M⁻¹ s⁻¹] | Km (purified protein [3]) [µM] | Vmax (purified protein [3]) [µmol/min/mg] | kcat/Km (purified protein [3]) [M⁻¹ s⁻¹] | Km [4] [µM] | Km [5] [µM] |
| --- | --- | --- | --- | --- | --- | --- | --- | --- | --- | --- | --- |
| AF0933 (Archaeoglobus fulgidus DSM 4304) (protein) MLYVYMDGEFVPENEAKVSIFDHGFLYGDGVFEGIRAYNGRVFRLKEHIDRLYDSAKAIDLEIPITKEEFMEIILETLRKNNLRDAYIRPIVTRGIGDLGLDPRKCQNPSIIVITKPWGKLYGDLYEKGLTAITVAVRRNSFDALPPNIKSLNYLNNILAKIEANAKGGDEAIFLDRNGYVSEGSGDNIFVVKNGAITTPPTINNLRGITREAVIEIINRLGIPFKETNIGLYDLYTADEVFVTGTAAEIAPIVVIDGRKIGDGKPGEITRKLMEEFSKLTESEGVPIYE | 250 | 5.5 | 13000 | 130 | 3.9 | 17700 | 420 | 6.3 | 8850 |  |  |
| GEO1900 (Geoglobus acetivorans) (protein, mainly homodimer in solution, hexamer in crystal; catalytic Lys152) MSELLVYMNGEFVPESQAKVSVFDHGFLYGDGVFEGIRAYNGKVFKLYEHIDRLYDCARVIDLKIPLSKEEFAEAILETLRRNNLRDAYIRPIVTRGAGDLGLDPRKCPSPNVIIITKPWGKLYGDLYEKGLKAITVAIRRNAIDSLPPNIKSLNYLNNILAKIEANAKGGDEAIFLDHNGYISEGSGDNIFIVKNGTITTPPTLNNLKGITRQVVIELINELEIPFREANIGLFDLYSADEIFVTGTAAEIAPVTYIDGRTVGNGKPGKVTKMLMEKFRERTENEGVEIYR |  |  |  |  |  |  |  |  |  | 1900 ± 600 | 10600 ± 1900 |
